Results taken from PMC5552922.

Assays:
[1] = target: T1, DdrOC (DdrO) (Deinococcus deserti) (UniProt C1CYP4); experiment: EMSA; settings: EMSA: 10 mM Tris-HCl pH 7.4, 60 mM NaCl, 1 mM DTT, 5% glycerol, 200 ng DNA in 20 ul, 30 min room temperature; 5% PAGE in TAE at 4 C, ethidium bromide
T1 sequence: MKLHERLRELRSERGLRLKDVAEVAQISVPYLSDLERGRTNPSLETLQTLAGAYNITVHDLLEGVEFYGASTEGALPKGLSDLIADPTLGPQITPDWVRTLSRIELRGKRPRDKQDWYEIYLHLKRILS

[2] = target: T2, DdrOC cleaved by IrrE (Deinococcus deserti) (UniProt C1CYP4); experiment: EMSA; settings: EMSA: 10 mM Tris-HCl pH 7.4, 60 mM NaCl, 1 mM DTT, 5% glycerol, 200 ng DNA in 20 ul, 30 min room temperature; 5% PAGE in TAE at 4 C, ethidium bromide
T2 sequence: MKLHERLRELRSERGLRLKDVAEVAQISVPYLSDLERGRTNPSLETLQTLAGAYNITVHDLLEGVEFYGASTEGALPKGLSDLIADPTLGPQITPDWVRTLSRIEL

TATAGGTACCGGTACTCCTTCCTGTCCGACAGCAGACAGCGAGGCAAAGCATGAATAGTCGGTCTTAAGGGGGTAAAAGCCTTCTTGATTACGATCATAGCAGATCGTCTCGTGGTGGGCAAGAAGAACTCCTCTCTATTCTGTATTGACCGTACCGGGAAGCGGTGTTACACTCCAACCAAGGGTGCCCGATTCTGCCTACAGGCAAACGCTCCCCCAGGCGGCCCGCCCGGTCAGCGCACAGTCCCGGTCGCTCAAAGCTGCAGTATC (double strand) [ddrOC-ddrQ intergenic region]
binding [1]: binds
binding [2]: no binding
